Results taken from the nanobody polyreactivity screen of Harvey et al. (2022).

Assay: yeast display, Sf9 membrane polyspecificity reagent, FACS + sequencing; frameworks hold sequencing errors
How it was run: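 Nanobodies came from a synthetic yeast display library in Saccharomyces cerevisiae BJ5465, induced with galactose for 36–48 hours and stained for 1 hour at 4 °C with 10% biotinylated, detergent-solubilized Sf9 membrane reagent. Cells were enriched on streptavidin microbeads and then FACS-sorted, with low and high (top ~1%) gates set on anti-HA fluorescence for expression and streptavidin fluorescence for reagent binding. Each polyreactivity label reflects the gate a clone came from. Genes were amplified by colony PCR, sequenced by MiSeq 2 × 250 and filtered by CDR length.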

Sequence | polyreactivity (PSR sort gate)
QVQLVESGGGLVQAGGSLRLSCAASGIIFYLYAMGWYRQAPGKERELVAPITTGGRTNYADSVKGRFTISRDNAKNTVYLQMNSLKPEDTAVYYCAATHRGQGGYYWGQGTQVTVSS | low polyreactivity
QVQLVESGGGLVQAGGSLRLSCAASGRIFPYYTRGWYRQAPGKERELVATITTGGSTNYADSVKGRFTISRDNAENTVYLQMNSLKPEDTAVYYCAKREASSRWPYDYWGQGTQVTVSS | low polyreactivity
QVQLVESGGGLVQAGGTLRLSCAASGIILSRYAMGWYIQAPGKERELVAAITRTTSTSYADSVKGRFTISRDNAKNTFYLQMNILKTEDTEVYYCAAVHYGGTAYYYWGQGTQVNVSS | high polyreactivity
QVQLVESGGGLVHAGGSLRLSCAASGRTFWYYAMGWYRQAPGKERELVAAITRGGRTNYADSVKGRFTISRDNAKNTVYLQMNSLKPEDTAVYYCAADYRYPAHSYGYWGQGTQVTVSS | high polyreactivity
QVQLQESGGGLAQAGGCLRLSCAASGTIFPADSMGWYRQAPGIERELVAGITSGANTYYADSVKGRFTISHDNAKNTVYLQMDSLIPEDIAVYYCAAPGSSTYDLEYWGQGTQGTVSS | high polyreactivity
QVQLVESGGGLVQAGGSLRLSCAASGSIFVLSAMGWYRQAPGKEREFFAAITWSGDSTYYADSVKGRFTISRDNAKNTVYLQMNSLKPEDTAVYYCAAEGNTWPADFLSYYFEFDEYWGQGTQVTVSS | low polyreactivity
QVQLVESGGGLVQAGGSLRLSCAASGSIFRYYAMGWYRQAPGKESEFVASITYRGGRTYYADSVKGRFTISRDNAKNTVYLQMNSLKPEDTAVYYCAARTRAGAWTSKYHDYWGQGTQVTVSS | high polyreactivity
QVQLVESGGGLVQAGGSLRLSCAASGYIFGYYVMGWYRQAPGKERELVAAISGRGGRTYYADSVKGRFTISRDNAKNTVYLQMNSLKPEDTAVYYCAAADLPGTMYYWGQGTQVTVSS | high polyreactivity
QVQLVESGGGLVQAGGSLRLSCAASGSIFRPYVMGWYRQAPGKERELVAAISSRGGDTYYADSVKGRFTISRDNAKNTVYLQMNSLKPEDTAVYYCAAVEFRDSTFVVVSSPTSKSDYWGQGTQVTVSS | low polyreactivity
QVQLVESGGGLVQAGGSLRLSCAASVFTFYLYAMGWDRQAPGKERELVADITKRGGSTDYADSVKGRFTISRDNAKNTVYLQMNSLKPEDTAVYYCAARGPTFGVDYGYWGQGTQVTVSS | high polyreactivity
QVQLVESGGGLVQAGGSLRLSCAASGRILSSYAMGWYRKAPGKERELVAVISSGGNTYYADSVKGRFTISRDNAKNTVYLQMNSLKPEDTAVYYCAAVRHRQTYTKYNYWGQGTKVTVSS | high polyreactivity
QVQRVESGGGLLQAGRSLRLSCAASGTIFYHYAMGWYRQAPGKERELVAAMTRSGGSTYYADSVKGRFTISRDNAKNTVYLQMNSLNPEDTAVYYCAKDPDSYNFLTSNWYDYWGQGTQVTVCS | low polyreactivity
QVQLVESGGGLVQAGGSLRLSCAASGSTFYDYVMGWYRQAPGKERELFAAISRTGASTYYADSVKGRFTISRDNAKNTVYLQMNSLKPVDTAVYYCAADSDTVRYYYWGQGTQVTVSS | high polyreactivity
QVQLVESGGGLVHAGGSLRLSCAASGSNFRYNAMGWYRQAPGKEREFYADSVKGRFTISRDNAKKTVYLQMNSLKPEDTAVYYCNATWYLWYWHDMDYWGQGTQGTVSS | low polyreactivity
QVQLVESGGGLVQAGGSLRLSCAASGRTLGVYAMGWYRQAPGKERELVATITSGDGTNYADSVKGRFTISRDNAKNTVYLQMNSLKPVDTAVYYCNAEAKSQWFVYPYWYWPLYDYWGPGTQVTVSS | low polyreactivity
QVQLQESGGGLVQAGGSLRLSCAASGSISELRPMGWYRQAPGKERELVAGISTGGSTNYADSVKGRFTISRDNAKNTVYLQMNSLKPEDTAVYYCAAASYGEGTYDYWGQGTQVTVRS | high polyreactivity
QVQLVESGGGLVQAGGSLRLSCAASGSTFVGYAMGWYRQAPGKERELVAGITASGTNTYYADSVKGRFTISRDNAKNTVYLQMNSLKPEDTAVYYCAAESNRRFEGEYWGQGTQVTVSS | high polyreactivity
QVQLVESGGGLVQAGGRLRLSCAASGITFRTYAMGWYREAPGKERELVDAITRRGGSTYYADSVKGRFTISRDNAKNTVYLQMNSLKPEDTAVYYCAVRHNGIQASVGYDYWGQGTQVTGSS | high polyreactivity
QVQLQESGGGLVQAGVSLRLSCAASGNINDADIMGCYRQAPGKERELVTSITDGGSTNYADSVKGRFTISRDNAKNTVYLQMNSLKPEDTAVYYCAAIAYPVIPTSFDYNSDYSYWGQGTQVTVSS | low polyreactivity
QVQLVESGGGLVQAGCSLRLSCASSGSTFEYYAKGRYRQAPGKERELGAAINGIGGSTTYADSVKGRFTISRDNAKNNVYFQMNSLKPEDTAVYYCNADVARSNSQASAYDYWGQGTQVTVSS | low polyreactivity
QDQLVESGGGLVQAGGSLRLICAASGLIFGFYAMGWYRQAPGKERELVAAINTGGITYYADSVKGRFTISRDNAKYTVYLQMNSLKPEDTAVYYCNKDSHISTAYDYWGQGTQVTVSS | low polyreactivity
QLQLVESGGGLVQAGGSLRLSSAASGSIFIYYAMGWYRQAAGKERELVAAISYSDGDTYYADSVKGRFTISRDNAKNTVYLQMNSLKPEDTAVYYCAAEVPQYYDVGWEDYWGQGTQVTVSS | high polyreactivity

Sequence | polyreactivity (PSR sort gate)
QVQLVESGGGLVQAGGSLRLSCAASGSIVSYYAMGWYRQAPGIERELVAAITTRGGRSYYADSVMGRFTISRDYAKNTVYLPMNSLKPEDTAVYYFNRYPGYIQGDYDYWGQGTQVTVSS | high polyreactivity
QVQLVESGGGLVQAGGSLRLSCAASGSISGYYARGWYRQAPGKERELVASIRYTGARTYYADSVKGRFTISRDNAKYTVYVQMNSLKPEDTAVYYCAATEFTYYYSYDYWGQGTLVTVSS | low polyreactivity
QVQLVESGGGLVQAGGSLRLSCAASGFTFRYYAMGWYRQAPGKEREFVAAIRSSGTTTSYADSVKGRFTISRDNEKNTVYLQMNSLKPEDTAVYYCAAGYFGPQQYYYWGQGTQVTVSS | high polyreactivity
QVQLVESGGGLVQAGGSLRLSCAASGSTFYRYAMGWYRQAPGKERELVAAISRNGGSTYYSDSVKGRFTISRDNAKNTVYLQMNSLKPEDTAVYYCAAVWPYGSRVAPMDYWGQGTQVTVSS | high polyreactivity
QVQLVESGGGLVQAGGSLRLSCAASGITFKYYVMGWYRQAPGKERELVAAISYDGGSTYYADSVKGRFTISRDNAKNTVYLQMNSLKPEDTAVYYCAAPVWIDGDESGYEYDYWGQGTQVTVSS | low polyreactivity
QVRLVESGGGLVQAGGSLRLSCAASGSIFYFNAMGWYRQAPGKERELVATIRYRGGRTYADSVKGRFTISRDNAKNTVYLQMNSLKPEDTAVYFCNTYARYAYLTGRMDYWGQGTQVTVSS | high polyreactivity
QVQLVESGGGLVQAGGSLRLSCAASGSTFWVYAMGWYRQAPGKERELVASITFSGSSTYYADSVKGRFTISRDNAKNTVYLQMNSLKPEDTAVYYCAAGEGGDRSRGYLSQYGYWGQGTQVTVSS | low polyreactivity
QVQLVESGGGLVQAGGSLRLSCAASGFTVSYNTMGWYRQAPGKERELVAAISARGTSTYYADSVKGRFTISRDNAKNTVYLQMNSLKPEDTAVYYCAAAYRIGSGYWGQGTQVTVSS | high polyreactivity
QVQLVESGGGLVQAGGSLRLSCAASGSIFAGYAMGWYRQAPGKERELVAVISSTGSTYYADSVKGRFTISRDNAKNTVYLQMNSLKPEDTAVYYCAAGDVGYSYYRIYSRMDYWGQGTQVTVSS | low polyreactivity
QVQLVESGRGLVQAGGSLRLSCAASGRIFTHYAMGWYRQAPGKERELVAAITSSSGSTYYADSVKGRFTISRDNAKNTVYLPMISLKPEDTAVYYCAASRYGKNGKFHYWGQGTQVTVSS | high polyreactivity
QVQIVESGGGLVQAGGSLRLTCAASGSIFDVYTMGWYRQAPGKERELVAAISYSGGRTNYADSVKGRFTISRDNAKNTVYLQIYSLKPEDTAVYYCATTDGRTAWGVKDYYAKYNYWGQGTQVTVSS | low polyreactivity
QVQLVESGGGLVQAGGSLRLSCAASGITLGRYSMGLYRQAPGKVRELVAVISDSGGSTYYADSVKGRFTISRDNAKNTVYLQMNSLKPEYTAVYYCARRFDRYPRYYYWGQGTQVTVSS | high polyreactivity
QVQLVESGGGLVQAGGSLRLSCAASGRIFYYSAMGWSRQAPGIERELVAAITRRGGSTYYADSVKGRVTISRDNAKNTVFLQMNSLKPEDTEVYYSAKPDRTCWLDGDYWGQGSQVTVSS | low polyreactivity
QVQLGESGGGLFQAGGSLRLSCAASGRTFVTYAMVWYRQAPGKERELVAAISKRGSRTYYADSVKGRFTISRDNAKNTVYLQMNTLKPEDTAVYYCAVVYSIYTRGYDYWGQGTQVTVSS | high polyreactivity
QVQLVESGGGLVQAGGSLSLSCAASGSIFLRNAMGWYRQAPGKETEYVASITWNGASTSYADSVMGRFTISRDNAKNTVYLQMNSLKPEDTAVYYCAARDSQYGGPGMDYWGQGTQVTVSS | low polyreactivity
QVQLVESGGGLVQAGGSLRLSCAASGFTFRYYAMGWYRQAPGKERELVAAISSGGSTYYADSVKGRFTISRDNAKNTVYLQMNSLKPEDTAVYYCATYLAEYGYWGQGTQVTVSS | high polyreactivity
QVQLVESGGGLVQAGGSLRLSCAASGIIFSSYAMGWYRQAPGKERELVADISYTGGSTYYADSVKGRFTISRDNAKNTVYLQMNSLKPEDTAVYYSAAGVYLHYSVDYWGQGTQVTVSS | low polyreactivity
QVQLVESCGGLVQAGGSLRLSCAASGSIFYGNVMGWYRQAPGKERELVAAISSSGGSTYYADSVKGRFTISRDNEKNTVYLQMNRLKPEDSAVYYCAAYWWSRVVRGSRYDYWGQGTHVTVSS | low polyreactivity
QLQLEESAGGLVQAGGSLRLSCAASGSIFSDNAMGWYRQAPGKERELVASINSGGSTNYADSVKGRFTISRDNAKNTVYLQMNSLKPEYTAVYYFNKEDEVVYPGYPNGGMDYWGQGTQVTVSS | low polyreactivity
QVQLVESGGGLVQAGGSLRLSCAASGIIFFKYAMGWYRQAPGKERELVARISWSGSTYADSVKGRFTISRDNAKNTVYLQMNSLKPEDTAVYYCAADSFTITADSDDYWGQGTQVTVSS | low polyreactivity
QVQLVESGGGLVQAGGSLRLSCAASGSTFEPYAMGCYRQAPGKERELVAAISWSGGSTYYADSVKGRFTISRDNAKNTVDLQMNSLKPEDTAVYYCAAESGVPYYLPVVIYYYWGQGTQVTVSS | high polyreactivity
